Here are results for 8 molecules from patent US7588931B2, “High arachidonic acid producing strains of Yarrowia lipolytica” (E. I. du Pont de Nemours and Company, priority 2004, dated 2009).

In this series the test system is Yarrowia lipolytica. The series is described as follows: Percent substrate conversion of desaturases and elongases expressed in Yarrowia lipolytica. It is filed as cell-based. Particulars: for percent (%) substrate conversion of the codon-optimized gene: transformants of strain Y2031, MM, 2 days; for Codon-Opt. Gene % Sub. Conv. / Native Gene % Sub. Conv.: percent substrate conversion; for Codon-Opt. Gene % Sub. Conv.: codon-optimized gene expressed in Y. lipolytica; for Native Gene % Sub. Conv.: expressed in Y. lipolytica. Here is the method:
The terms “conversion efficiency” and “percent substrate conversion” refer to the efficiency by which a particular enzyme (e.g., a desaturase or elongase) can convert substrate to product. The conversion efficiency is measured according to the following formula: ([product]/[substrate+product])*100, where ‘product’ includes the immediate product and all products in the pathway derived from it.
With respect to Δ12 desaturase, Applicants have made the surprising discovery that the Fusarium moniliforme Δ12 desaturase (encoded by SEQ ID NO:27) functions with greater efficiency than the native Yarrowia lipolytica Δ12 desaturase in producing 18:2 in Y. lipolytica (see WO 2005/047485). Specifically, expression of the F. moniliforme Δ12 desaturase under the control of the TEF promoter in Y. lipolytica was determined to produce higher levels of 18:2 (68% product accumulation of LA) than were previously attainable by expression of a chimeric gene encoding the Y. lipolytica Δ12 desaturase under the control of the TEF promoter (59% product accumulation of LA). This corresponds to a difference in percent substrate conversion (calculated as ([18:2+18:3]/[18:1+18:2+18:3])*100) of 85% versus 74%, respectively.
In the present invention, several desaturase and elongase genes from Table 5 were codon-optimized for expression in Yarrowia lipolytica, based on the host preferences described above. This was possible by first determining the Y. lipolytica codon usage profile (see WO 04/101757) and identifying those codons that were preferred. Then, for further optimization of gene expression in Y. lipolytica, the consensus sequence around the ‘ATG’ initiation codon was determined (i.e., ‘MAMMATGNHS’ (SEQ ID NO:356), wherein the nucleic acid degeneracy code used is as follows: M=A/C; S═C/G; H=A/C/T; and N=A/C/G/T). Table 7, below, compares the activity of native and codon-optimized genes when expressed in Y. lipolytica and provides details about each codon-optimized gene. % Sub. Conv. is the abbeviation for “percent substrate conversion” and Codon-Opt. is an abbreviation for “codon-optimized”.
Construct pDMW237 (FIG. 8C), an auto-replication plasmid comprising a chimeric FBAIN::1 g D9e::Pex20 gene, was transformed into Y. lipolytica Y2031 strain (Example 4) as described in the General Methods. Three transformants of Y2031 with pDMW237 were grown individually in MM media for two days and the cells were collected by centrifugation, lipids were extracted, and fatty acid methyl esters were prepared by trans-esterification, and subsequently analyzed with a Hewlett-Packard 6890 GC.
Construct pDMW297 was then used for transformation of strain Y2031 (Example 5) according to the General Methods. The transformant cells were plated onto MM selection media plates and maintained at 30° C. for 2 to 3 days. A total of 8 transformants grown on the MM plates were picked and re-streaked onto fresh MM plates. Once grown, these strains were individually inoculated into liquid MM at 30° C. and shaken at 250 rpm/min for 2 days. The cells were collected by centrifugation, lipids were extracted, and fatty acid methyl esters were prepared by trans-esterification, and subsequently analyzed with a Hewlett-Packard 6890 GC.

[1] abbreviates: under the control of the TEF promoter in Y. lipolytica.

B1: IgD9e: synthetic codon-optimized Δ9 elongase gene, SEQ ID NO:41 (protein)
chain: MALANDAGERIWAAVTDPEILIGTFSYLLLKPLLRNSGLVDEKKGAYRTSMIWYNVLLALFSALSFYVTATALGWDYGTGAWLRRQTGDTPQPLFQCPSPVWDSKLFTWTAKAFYYSKYVEYLDTAWLVLKGKRVSFLQAFHHFGAPWDVYLGIRLHNEGVWIFMFFNSFIHTIMYTYYGLTAAGYKFKAKPLITAMQICQFVGGFLLVWDYINVPCFNSDKGKLFSWAFNYAYVGSVFLLFCHFFYQDNLATKKSAKAGKQL
modifications: IgD9e: synthetic delta-9 elongase (codon-optimized for Yarrowia lipolytica)
Consider B1, for which the “percent (%) substrate conversion of the codon-optimized gene” value is “about 13%”.

B2: Isochrysis galbana Δ9 elongase: codon-optimized gene SEQ ID NO:41 (protein)
chain: MALANDAGERIWAAVTDPEILIGTFSYLLLKPLLRNSGLVDEKKGAYRTSMIWYNVLLALFSALSFYVTATALGWDYGTGAWLRRQTGDTPQPLFQCPSPVWDSKLFTWTAKAFYYSKYVEYLDTAWLVLKGKRVSFLQAFHHFGAPWDVYLGIRLHNEGVWIFMFFNSFIHTIMYTYYGLTAAGYKFKAKPLITAMQICQFVGGFLLVWDYINVPCFNSDKGKLFSWAFNYAYVGSVFLLFCHFFYQDNLATKKSAKAGKQL
modifications: IgD9e: synthetic delta-9 elongase (codon-optimized for Yarrowia lipolytica)
With B2, the “Codon-Opt. Gene % Sub. Conv.” value is reported as 30%.

B3: D8SF: completely corrected synthetic codon-optimized Δ8 desaturase gene, SEQ ID NO:48 (protein)
chain: MVKSKRQALPLTIDGTTYDVSAWVNFHPGGAEIIENYQGRDATDAFMVMHSQEAFDKLKRMPKINPSSELPPQAAVNEAQEDFRKLREELIATGMFDASPLWYSYKISTTLGLGVLGYFLMVQYQMYFIGAVLLGMHYQQMGWLSHDICHHQTFKNRNWNNLVGLVFGNGLQGFSVTWWKDRHNAHHSATNVQGHDPDIDNLPLLAWSEDDVTRASPISRKLIQFQQYYFLVICILLRFIWCFQSVLTVRSLKDRDNQFYRSQYKKEAIGLALHWTLKTLFHLFFMPSILTSLLVFFVSELVGGFGIAIVVFMNHYPLEKIGDSVWDGHGFSVGQIHETMNIRRGIITDWFFGGLNYQIEHHLWPTLPRHNLTAVSYQVEQLCQKHNLPYRNPLPHEGLVILLRYLAVFARMAEKQPAGKAL
modifications: D8SF: synthetic delta-8 desaturase (codon-optimized for Yarrowia lipolytica)
As to B3, the “percent (%) substrate conversion of the codon-optimized gene” value is listed as 75%.

B4: Y. lipolytica Δ12 desaturase: native Yarrowia lipolytica Δ12 desaturase, SEQ ID NOs:23 and 24 (protein, listed as Yarrowia lipolytica)
chain: MDSTTQTNTGTGKVAVQPPTAFIKPIEKVSEPVYDTFGNEFTPPDYSIKDILDAIPQECYKRSYVKSYSYVARDCFFIAVFAYMAYAYLPLIPSASGRAVAWAMYSIVQGLFGTGLWVLAHECGHSAFSDSNTVNNVTGWVLHSSMLVPYYAWKLTHSMHHKSTGHLTRDMVFVPKDRKEFMENRGAHDWSELAEDAPLMTLYGLITQQVFGWPLYLLSYVTGQKYPKLNKWAVNHFNPNAPLFEKKDWFNIWISNVGIGITMSVIAYSINRWGLASVTLYYLIPYLWVNHWLVAITYLQHTDPTLPHYHADQWNFTRGAAATIDREFGFIGSFCFHDIIETHVLHHYVSRIPFYNARIATEKIKKVMGKHYRHDDTNFIKSLYTVARTCQFVEGKEGIQMFRNVNGVGVAPDGLPSKK
With B4, under setting [1], the “percent substrate conversion (calculated as ([18:2+18:3]/[18:1+18:2+18:3])*100)” value is 74% and the “product accumulation of LA” value was 59%.

B5: T. aureum C18/20 elongase: codon-optimized gene SEQ ID NO:22 (protein, listed as Thraustochytrium aureum)
chain: MANSSVWDDVVGRVETGVDQWMDGAKPYALTDGLPMMDVSTMLAFEVGYMAMLLFGIPIMKQMEKPFELKTIKLLHNLFLFGLSLYMCVETIRQAILGGYKVFGNDMEKGNESHAQGMSRIVYVFYVSKAYEFLDTAIMILCKKFNQVSFLHVYHHATIFAIWWAIAKYAPGGDAYFSVILNSFVHTVMYAYYFFSSQGFGFVKPIKPYITTLQMTQFMAMLVQSLYDYLFPCDYPQALVQLLGVYMITLLALFGNFFVQSYLKKPKKSKTN
modifications: misc_feature: synthetic elongase (codon-optimized)
On to B5, for which the “Codon-Opt. Gene % Sub. Conv.” value is given as 46% and the “Native Gene % Sub. Conv.” value stood at 33%.

B6: S. diclina Δ17 desaturase: US 2003/0196217 A1; codon-optimized gene SEQ ID NO:16 (protein, listed as Saprolegnia diclina)
chain: MAEDKTKVEFPTLTELKHSIPNACFESNLGLSLYYTARAIFNASASAALLYAARSTPFIADNVLLHALVCATYIYVQGVIFWGFFTVGHDCGHSAFSRYHSVNFIIGCIMHSAILTPFESWRVTHRHHHKNTGNIDKDEIFYPHRSVKDLQDVRQWVYTLGGAWFVYLKVGYAPRTMSHFDPWDPLLLRRASAVIVSLGVWAAFFAAYAYLTYSLGFAVMGLYYYAPLFVFASFLVITTFLHHNDEATPWYGDSEWTYVKGNLSSVDRSYGAFVDNLSHHIGTHQVHHLFPIIPHYKLNEATKHFAAAYPHLVRRNDEPIITAFFKTAHLFVNYGAVPETAQIFTLKESAAAAKAKSD
modifications: misc_feature: synthetic delta-17 desaturase (codon-optimized)
As for B6, the “Codon-Opt. Gene % Sub. Conv.” value worked out at 45% and the “Native Gene % Sub. Conv.” value came to 23%.

B7: M. alpina high affinity C18/20 elongase: GenBank AX464731; codon-optimized gene SEQ ID NO:19 (protein, listed as Mortierella alpina)
chain: MESIAPFLPSKMPQDLFMDLASAIGVRAAPYVDPLEAALVAQAEKYIPTIVHHTRGFLVAVESPLARELPLMNPFHVLLIVLAYLVTVFVGMQIMKNFERFEVKTFSLLHNFCLVSISAYMCGGILYEAYQANYGLFENAADHTFKGLPMAKMIWLFYFSKIMEFVDTMIMVLKKNNRQISFLHVYHHSSIFTIWWLVTFVAPNGEAYFSAALNSFIHVIMYGYYFLSALGFKQVSFIKFYITRSQMTQFCMMSVQSSWDMYAMKVLGRPGYPFFITALLWFYMWTMLGLFYNFYRKNAKLAKQAKADAAKEKARKLQ
modifications: misc_feature: synthetic elongase 1 (codon-optimized)
As to B7, the “Codon-Opt. Gene % Sub. Conv.” value was found to be 47% and the “Native Gene % Sub. Conv.” value is 30%.

B8: M. alpina Δ6 desaturase: GenBank AF465281; codon-optimized gene SEQ ID NO:3 (protein, listed as Mortierella alpina)
chain: MAAAPSVRTFTRAEVLNAEALNEGKKDAEAPFLMIIDNKVYDVREFVPDHPGGSVILTHVGKDGTDVFDTFHPEAAWETLANFYVGDIDESDRDIKNDDFAAEVRKLRTLFQSLGYYDSSKAYYAFKVSFNLCIWGLSTVIVAKWGQTSTLANVLSAALLGLFWQQCGWLAHDFLHHQVFQDRFWGDLFGAFLGGVCQGFSSSWWKDKHNTHHAAPNVHGEDPDIDTHPLLTWSEHALEMFSDVPDEELTRMWSRFMVLNQTWFYFPILSFARLSWCLQSILFVLPNGQAHKPSGARVPISLVEQLSLAMHWTWYLATMFLFIKDPVNMLVYFLVSQAVCGNLLAIVFSLNHNGMPVISKEEAVDMDFFTKQIITGRDVHPGLFANWFTGGLNYQIEHHLFPSMPRHNFSKIQPAVETLCKKYNVRYHTTGMIEGTAEVFSRLNEVSKATSKMGKAQ
modifications: misc_feature: synthetic delta-6 desaturase (codon-optimized)
With B8, the “Codon-Opt. Gene % Sub. Conv.” value is reported as 42% and the “Native Gene % Sub. Conv.” value is on record as 30%.
